Reference: patent publication US20240093255A1, “BIOSYNTHETIC PRODUCTION OF 2-FUCOSYLLACTOSE” (Conagen Inc., priority 2020, published 2024)

Columns and labels:
[1] = GDP-mannose-3,5-epimerase candidate screening (GDP-D-mannose to GDP-L-galactose); assay type: biochemical; settings: enzymatic screening of candidates
Description: The reaction conditions were: 2 mM GDP-D-mannose, 1 mM NAD^+, 50 mM Tris-HCl, pH 8.0 and with or without 0.33 mg/mL At GME. The reactions were incubated at room temperature for 16 hours, quenched by heating at 99° C. for 10 mins, and analyzed using HPLC.

[2] = FutC candidate activity in vitro using the de novo synthesis pathway (2′-FL by HPLC); assay type: biochemical; settings: 0.2 mg/mL fucosyltransferase, 1 mM GDP-mannose, 80 mM lactose, room temperature, 16 hours
Description: The final step in the novel path to 2′-FL requires an α-1,2-fucosyltransferase. Various FutC candidates were screened for soluble expression in E. coli and fucosyltransferase activity. The candidate enzymes show different solubilities and enzymatic activity for 2′-FL synthesis. For the candidates that have highly soluble expression, their activity was tested in vitro using the de novo synthesis pathway. The reaction conditions were: 50 mM Tris-HCl pH 8.0, 2 mM NADPH, 0.1 mM NADP^+, 1 mM GDP-mannose, 80 mM lactose, 0.9 mg/mL Ec Gmd (SEQ 11), 0.2 mg/mL Ec WcaG (SEQ ID NO: 7) and 0.2 mg/mL of the fucosyltransferase candidates. The reactions were incubated at room temperature for 16 hours. The reactions were quenched by heating at 99° C. for 10 minutes, and then analyzed by HPLC.

[3] = ASR library activity screen in clarified E. coli lysate; assay type: biochemical; settings: 1 mM GDP-L-fucose, 80 mM lactose
Description: (§1) The enzymes listed in Table 5 were expressed in E. coli, and the clarified lysate was normalized based on the OD600 standard curve and used to screen for activity. To the clarified lysate was added 50 mM Tris pH 7.5, 1 mM GDP-L-fucose, and 80 mM lactose, and the reactions were quenched by heating at 99° C. for 10 minutes, and analyzed using the 2′-FL HPLC method.

[4] = expressed in E. coli
Source text: One of the major limitations for 2′-FL production is FutC activity. After screening various FutC candidates as described in Example 5, the inventors sought to identify mutant FutC candidates with even higher activity and improved solubility using bioinformatics. Based on ancestral sequence reconstruction (ASR) analysis, a series of ASR mutants were designed (Table 5) and screened for their solubility and activity.
as §1

[5] = Activity comparison of purified FutC enzymes; assay type: biochemical; settings: 2 mM GDP-L-fucose, 40 mM lactose, 0.5 mg/mL FutC
Description: An assay was performed to compare the activity of the ASR11 and ASR12 enzymes to the activity of the parent construct, FutC #5 (SEQ ID NO: 29) and Helicobacter pylori FutC (HpFutC, SEQ ID NO: 61), an enzyme commonly used for 2′-FL production. Specifically, the assay conditions were: 2 mM GDP-L-fucose, 40 mM lactose, 50 mM Tris pH 7.5, and 0.5 mg/mL FutC.

[6] = In vitro enzyme cascade converting L-galactose to 2′-FL; assay type: biochemical; settings: 10 mM L-galactose, 0.2 g/L FutC, quenched at 3 hours and 22 hours
Description: The reaction conditions were: 50 mM Tris pH 7.5, 10 mM L-galactose, 2 mM ATP, 2 mM GTP, 25 mM acetyl phosphate, 5 mM magnesium chloride, 5 mM potassium chloride, 0.15 mM NADP^+, 0.5 mM NADPH, 40 mM lactose, 0.23 g/L […] (FKP, SEQ ID NO: 1), 0.06 g/L an acetate kinase for the ATP recycling system (Gs Ack, SEQ ID NO: 65), 0.3 g/L At GMD (SEQ ID NO: 79), 0.75 g/L WcaG (SEQ ID NO: 7) and 0.2 g/L ASR 12 (SEQ ID NO: 109). The reactions were quenched by heating at 99° C. […] and analyzed using the 2′-FL LC-MS method.

[7] = Dehydratase screening for GDP-L-fucose synthesis from GDP-L-galactose; assay type: biochemical
Description: Four enzymes were screened: At Gmd (SEQ ID NO: 5), Hs Gmd (SEQ ID NO: 9), Ec Gmd (SEQ ID NO: 11) and Yp DmhA (SEQ ID NO: 13), while Ec WcaG (SEQ ID NO: 7) is known to be a reductase. […] The reactions were incubated for 16 hours at 37° C., and then quenched by heating at 99° C. for 10 minutes. Samples were analyzed by both HPLC and LC-MS methods.

[8] = GDP-L-fucose inhibition assay of GMD enzymes (GDP-4-keto-6-deoxymannose detection); assay type: biochemical; settings: 350 μM GDP-L-fucose; 1 mM GDP-mannose, 0.5 mg/mL GMD
Description: To test for inhibition, the mutants were expressed and purified as described in Example 7, and assayed at a range of GDP-L-fucose concentrations. The assay conditions were as follows: 50 mM Tris pH 7.5, 1 mM GDP-mannose, 0.5 mM NADP^+, 0.5 mg/mL dehydratase (GMD) enzyme, and 0 μM, 70 μM or 350 μM GDP-L-fucose. The reactions were quenched at 99° C. for 10 minutes, and the enzymes' respective activities were analyzed using the nucleotide sugar LC-MS method by GDP-4-keto-6-deoxymannose detection.

[9] = FKP activity towards L-galactose (GDP-L-galactose production); assay type: biochemical
Description: FKP naturally catalyzes the conversion of L-fucose into GDP-L-fucose. It has been reported that FKP also could generate GDP-L-galactose from L-galactose (Ohashi et al. 2017). FKP was cloned into pET21, expressed and purified as described in Example 1. The activity of FKP towards L-galactose was assayed under the following conditions: 2 mM L-galactose, 2 mM ATP, 2 mM GTP, 4 mM MgCl2, 50 mM Tris-HCl, pH 7.5 and with or without 0.25 g/L FKP. The samples were incubated at room temperature overnight, and quenched by heating at 99° C. for 10 minutes, and analyzed using LC-MS.
Further work was conducted to optimize the FKP reaction with L-galactose as the substrate, by varying reaction temperature, substrate concentrations, and adding an ATP/GTP regeneration system. The reaction conditions were: 50 mM Tris-HCl pH 7.5, 5 mM MgCl2, 5 mM L-galactose, 2 mM ATP, 2 mM GTP, 10 mM PEP, 1 U pyruvate kinase, and with or without 0.8 mg/mL FKP. The reaction was incubated at 37° C. for 44 hours. The reaction was quenched by heating at 99° C. for 10 minutes. The samples were analyzed using HPLC (FIG. 5).

At GME: GDP-mannose-3,5-epimerase from Arabidopsis thaliana, SEQ ID NO: 3
GDP-mannose-3,5-epimerase activity [1]: higher activity than Os GME

B1: FutC 18: α-1,2-fucosyltransferase candidate from Rhizobiales bacterium, SEQ ID NO: 55 (protein, listed as Rhizobiales bacterium)
chain: MIVTRIVGGLGNQMFQYAVGRALSAKTGQEFKLDLSEMDRYKVHALQLDQFNIKGVRAGRHEIPFRPRKSFFGKILTALKNRNRIPQVFETTPSFDPSVLQRKGSCYLSGYWQSEKYFSDCSELIRADFSLKGPMSDERQAVLSQIRDAEAPVSVHVRRGDYVTNTTANSIHGTCEPEWYRQAMRKISDRTGDPTFFVFSDDPMWARSNLPTYEKMVFVEPRADGKDAEDMHLMSSCQSHIIANSTFSWWGAWLNPRQDKRVIAPARWFRAEDRDSTDLVPAQWERL
α-1,2-fucosyltransferase activity for 2′-FL production [2]: have α-1,2-fucosyltransferase activity for 2′-FL production

B2: ASR 12: FutC mutant from ancestral sequence reconstruction, SEQ ID NO: 109 (protein)
chain: MIIIRMSGGLGNQMFQYALYRKLKSMGKEVKIDDITGYEDDNQRSIMLDVFGIDYDKATKEEITKLTDSSMDFLSRIRRKLFGRKSKEYQEEDFNFDPQVLEMDDAYLEGYFQSEKYFQDVREQLRKEFTFRKNSVPELSEQTKELRKQIENSNSVSIHIRRGDYLENSHAEIYGGICTDDYYKKAIEYMKEKFPDAKFYIFSNDIEWAKQHFKGENFVIVDASEENTGYADMYLMSKCKHHIIANSSFSWWGAWLNDNPEKIVIAPSKWLNNKECKDIYTDRMIKIDAKGEVRSEDYGVRTNSTVK
modifications: ASR12
activity compared to the rest of the ASR library [3]: improved
solubility compared to the rest of the ASR library [4]: improved
FutC activity compared to Hp FutC and parent FutC 5 [5]: outperformed Hp FutC as well as the parent construct
2′-FL production compared to FutC #5 and Hp FutC [6]: significantly higher

B3: FutC13: α-1,2-fucosyltransferase candidate from Candidatus Brocadia sapporoensis, SEQ ID NO: 45 (protein)
chain: MQLKRWPQLKPTDAAVFGSGKQTIMIIVKLMGGLGNQMFQYAAGRRLAEKLGVKLKLDIEMFKDNTLRKYELGAFNIQECFAAVEEIERLTVVKRGIVEKALDRVFKRPIRRPGGYVAEKYFVFDPSILQLPDQVYLDGYWQSEKYFAEIETIIREEFTIKYPQTDKNKVLSDSIKSGNSVTVHVRRGDYVNNPETNSLHGVCGIDYYQRCIDFIITKIANPHFFFFSDDPEWVKNNLKIKYESTVVEHNGAEKCYEDLRLLSQGKYHIIANSTFSWWGAWLNKNPEKMVVAPEKWFKKEDVNTKGFIPEDWIRL
modifications: Candidatus Brocadia sapporoensis
α-1,2-fucosyltransferase activity for 2′-FL production [2]: have α-1,2-fucosyltransferase activity for 2′-FL production

B4: At WT: GDP-mannose-4,6-dehydratase from Arabidopsis thaliana, wild type, SEQ ID NO: 5 (protein, listed as Arabidopsis thaliana)
chain: MASENNGSRSDSESITAPKADSTVVEPRKIALITGITGQDGSYLTEFLLGKGYEVHGLIRRSSNFNTQRINHIYIDPHNVNKALMKLHYADLTDASSLRRWIDVIKPDEVYNLAAQSHVAVSFEIPDYTADVVATGALRLLEAVRSHTIDSGRTVKYYQAGSSEMFGSTPPPQSETTPFHPRSPYAASKCAAHWYTVNYREAYGLFACNGILFNHESPRRGENFVTRKITRALGRIKVGLQTKLFLGNLQASRDWGFAGDYVEAMWLMLQQEKPDDYVVATEEGHTVEEFLDVSFGYLGLNWKDYVEIDQRYFRPAEVDNLQGDASKAKEVLGWKPQVGFEKLVKMMVDEDLELAKREKVLVDAGYMDAKQQP
dehydratase activity towards GDP-L-galactose ([7]; 5 mM GDP-L-Gal, 2.4 g/L At Gmd, 3.2 g/L Ec WcaG, 16 hours, 37° C.): has dehydratase activity towards GDP-L-galactose
initial dehydratase activity ([7]; among four potential dehydratases screened): highest initial activity
decrease in activity [8]: 95%

B5: FKP: fucokinase/guanylyltransferase from Bacteroides fragilis, SEQ ID NO: 1 (protein, listed as Bacteroides fragilis)
chain: MQKLLSLPPNLVQSFHELERVNRTDWFCTSDPVGKKLGSGGGTSWLLEECYNEYSDGATFGEWLEKEKRILLHAGGQSRRLPGYAPSGKILTPVPVFRWERGQHLGQNLLSLQLPLYEKIMSLAPDKLHTLIASGDVYIRSEKPLQSIPEADVVCYGLWVDPSLATHHGVFASDRKHPEQLDFMLQKPSLAELESLSKTHLFLMDIGIWLLSDRAVEILMKRSHKESSEELKYYDLYSDFGLALGTHPRIEDEEVNTLSVAILPLPGGEFYHYGTSKELISSTLSVQNKVYDQRRIMHRKVKPNPAMFVQNAVVRIPLCAENADLWIENSHIGPKWKIASRHIITGVPENDWSLAVPAGVCVDVVPMGDKGFVARPYGLDDVFKGDLRDSKTTLTGIPFGEWMSKRGLSYTDLKGRTDDLQAASVFPMVNSVEELGLVLRWMLSEPELEEGKNIWLRSERFSADEISAGANLKRLYAQREEFRKGNWQALAVNHEKSVFYQLDLADAAEDFVRLGLDMPELLPEDALQMSRIHNRMLRARILKLDGKDYRPEEQAAFDLLRDGLLDGISNRKSTPKLDVYSDQIVWGRSPVRIDMAGGWTDTPPYSLYSGGNVVNLAIELNGQPPLQVYVKPCKDFHIVLRSIDMGAMEIVSTFDELQDYKKIGSPFSIPKAALSLAGFAPAFSAVSYASLEEQLKDFGAGIEVTLLAAIPAGSGLGTSSILASTVLGAINDFCGLAWDKNEICQRTLVLEQLLTTGGGWQDQYGGVLQGVKLLQTEAGFAQSPLVRWLPDHLFTHPEYKDCHLLYYTGITRTAKGILAEIVSSMFLNSSLHLNLLSEMKAHALDMNEAIQRGSFVEFGRLVGKTWEQNKALDSGTNPPAVEAIIDLIKDYTLGYKLPGAGGGGYLYMVAKDPQAAVRIRKILTENAPNPRARFVEMTLSDKGFQVSRS
conversion of L-galactose to GDP-L-galactose ([9]; 2 mM L-galactose, 0.25 g/L FKP, room temperature overnight, LC-MS): catalyzes the conversion of L-galactose to GDP-L-galactose
final titer of GDP-L-galactose ([9]; 5 mM L-galactose, 0.8 mg/mL FKP, PEP/pyruvate kinase regeneration, 37° C., 44 hours): 2.5 g/L
